Results: article PMC6309224

Assays:
[1] = molecular target: DIP-ε ectodomain (Glu50-Ser351) (Drosophila melanogaster); experiment: SPR
[2] = molecular target: DIP-ζ ectodomain (isoform A Glu111-Tyr412) (Drosophila melanogaster); experiment: SPR
[3] = molecular target: DIP-ι ectodomain (Phe23-Ala325) (Drosophila melanogaster); experiment: SPR
[4] = molecular target: DIP-α ectodomain (isoform A Phe40-Pro341) (Drosophila melanogaster); experiment: SPR
[5] = molecular target: DIP-β ectodomain (isoform C Ile82-Glu408) (Drosophila melanogaster); experiment: SPR
[6] = molecular target: DIP-ζ ectodomain (isoform A Glu111-Tyr412) (Drosophila melanogaster); experiment: AUC
[7] = molecular target: Dpr12 ectodomain (Dpr12C Ser72-Asp285) (Drosophila melanogaster); experiment: AUC
[8] = molecular target: Dpr21 ectodomain (Asp48-Asp253) (Drosophila melanogaster); experiment: AUC
[9] = molecular target: DIP-η ectodomain (isoform B Gln31-Pro338) (Drosophila melanogaster); experiment: SPR
[10] = molecular target: DIP-θ ectodomain (Asp128-Pro423) (Drosophila melanogaster); experiment: SPR
[11] = molecular target: DIP-α ectodomain (isoform A Phe40-Pro341) (Drosophila melanogaster); experiment: AUC
[12] = molecular target: DIP-η ectodomain (isoform B Gln31-Pro338) (Drosophila melanogaster); experiment: AUC

A Kd [1] of 69.2 µM and a Kd [2] of 106 µM were found for “Dpr14 ectodomain (Dpr14A Thr26-Glu283) (domain or fragment)” in this work.
A Kd [3] of 136 µM was found for “Dpr7 ectodomain (Dpr7F Thr37-Glu269) (domain or fragment)” in this work.
A Kd [4] greater than 400 µM was found for “Dpr4 K82H ectodomain (domain or fragment)” in this work.
A Kd [5] of 54.9 µM was found for “Dpr10 ectodomain (Dpr10D Trp50-Glu255) (domain or fragment)” in this work.
A Kd [6] of 22.2 µM was found for “DIP-ζ ectodomain (isoform A Glu111-Tyr412) (domain or fragment)” in this work.
A Kd [7] of 71.3 µM was found for “Dpr12 ectodomain (Dpr12C Ser72-Asp285) (domain or fragment)” in this work.
A Kd [8] of 49.1 µM was found for “Dpr21 ectodomain (Asp48-Asp253) (domain or fragment)” in this work.
A Kd [9] of 119 µM and a Kd [10] of 72 µM were found for “Dpr6 N102D H110K V164K ectodomain (domain or fragment)” in this work.
A Kd [11] of 23.9 µM was found for “DIP-α ectodomain (isoform A Phe40-Pro341) (domain or fragment)” in this work.
A Kd [4] of 16 µM was found for “Dpr4 D74N A76T K82H K136V ectodomain (domain or fragment)” in this work.
A fold decrease in binding against wild-type Dpr6 [4] of 25 fold was found for “Dpr6 H110K ectodomain (domain or fragment)” in this work.
A Kd [9] of 41 µM and a Kd [3] of 22.4 µM were found for “Dpr2 ectodomain (Dpr2F Tyr103-Glu323) (domain or fragment)” in this work.
A Kd [12] of 35.4 µM was found for “DIP-η ectodomain (isoform B Gln31-Pro338) (domain or fragment)” in this work.
A Kd [1] of 21.2 µM and a Kd [2] of 24.7 µM were found for “Dpr18 ectodomain (His214-Glu478) (domain or fragment)” in this work.
A Kd [5] of 94 µM was found for “Dpr11 ectodomain (Dpr11B Leu114-Glu324) (domain or fragment)” in this work.
A Kd [4] of 44.9 µM, a fold weaker binding than wild-type Dpr4 [9] greater than 4 fold and a fold weaker binding than wild-type Dpr4 [10] greater than 4 fold were found for “Dpr4 K82H K136V ectodomain (domain or fragment)” in this work.
A Kd [5] of 19.4 µM was found for “Dpr6 ectodomain (Dpr6C Trp70-Glu275) (domain or fragment)” in this work.
